12 molecules from US20260049134A1 (UNIVERSITY OF FLORIDA RESEARCH FOUNDATION, published 2026) can be followed below.

T1: ANXA1
T1 construct: also called ANXA1-His (R&D Systems); not shown: His tag
T1 chain: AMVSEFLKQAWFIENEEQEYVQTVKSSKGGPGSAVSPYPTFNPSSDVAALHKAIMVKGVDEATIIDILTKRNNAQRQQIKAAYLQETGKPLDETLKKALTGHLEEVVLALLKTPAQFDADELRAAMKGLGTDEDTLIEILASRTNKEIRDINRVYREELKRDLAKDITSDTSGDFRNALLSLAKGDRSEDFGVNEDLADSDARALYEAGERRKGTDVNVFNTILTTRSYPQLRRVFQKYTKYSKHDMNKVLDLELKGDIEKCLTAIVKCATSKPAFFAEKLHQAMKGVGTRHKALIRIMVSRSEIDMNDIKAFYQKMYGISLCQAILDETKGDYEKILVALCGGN

T2: IGSF11
T2 construct: also called IGSF11-Fc (R&D Systems)
T2 chain: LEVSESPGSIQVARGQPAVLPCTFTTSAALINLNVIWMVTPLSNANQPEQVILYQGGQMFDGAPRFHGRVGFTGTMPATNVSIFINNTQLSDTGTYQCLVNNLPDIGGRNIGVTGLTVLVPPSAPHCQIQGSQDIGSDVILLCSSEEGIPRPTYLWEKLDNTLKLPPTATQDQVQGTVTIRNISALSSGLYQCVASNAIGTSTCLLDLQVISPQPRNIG

T3: GARS, endogenous in H929 multiple myeloma cells (human, UniProt P41250 37-739, limits assumed)
T3 construct: Native protein pulled down from H929 lysates; also called Glycyl-tRNA synthetase; GlyRS
T3 sequence: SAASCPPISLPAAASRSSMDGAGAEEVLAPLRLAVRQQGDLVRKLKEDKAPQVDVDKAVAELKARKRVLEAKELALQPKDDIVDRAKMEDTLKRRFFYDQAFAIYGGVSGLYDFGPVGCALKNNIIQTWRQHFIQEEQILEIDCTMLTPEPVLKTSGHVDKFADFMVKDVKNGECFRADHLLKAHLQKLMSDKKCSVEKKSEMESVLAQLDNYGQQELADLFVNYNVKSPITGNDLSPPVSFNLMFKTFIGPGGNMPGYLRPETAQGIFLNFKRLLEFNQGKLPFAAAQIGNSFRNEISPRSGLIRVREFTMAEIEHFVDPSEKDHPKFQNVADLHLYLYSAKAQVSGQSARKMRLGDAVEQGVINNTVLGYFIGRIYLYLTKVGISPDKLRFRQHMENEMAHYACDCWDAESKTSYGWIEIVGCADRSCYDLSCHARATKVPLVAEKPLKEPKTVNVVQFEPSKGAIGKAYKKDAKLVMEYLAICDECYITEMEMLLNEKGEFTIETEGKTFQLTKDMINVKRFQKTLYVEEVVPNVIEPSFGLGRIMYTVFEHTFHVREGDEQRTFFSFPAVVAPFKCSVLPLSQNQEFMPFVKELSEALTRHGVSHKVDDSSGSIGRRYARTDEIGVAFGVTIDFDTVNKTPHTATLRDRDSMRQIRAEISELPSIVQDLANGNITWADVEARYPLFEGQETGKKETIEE

B1: HW-42 chimeric rabbit-human IgG1 LA/LA/PG (antibody, V domains shown)
VH: QSVKESEGGLFKPADTLTLTCTVSGFSLSSNEISWVRQAPGEGLEYIGIIDTGGRAYYAVWARSRSTITRNTNLNTVTLKMTSLTAADTATYFCARGGVDTEWYAFSSWGPGTLVTVPS
VL: SFVLTQPASVQVNLGQTVSLTCTADTLSRRYASWYQQKPGQAPVLLIFRDTSRPSGVPDRFSGSSSGDTATLTISGAQAGDEADYYCATSDGSGSNYQYVFGGGTQLTVTG
notes: Fc-silenced (L234A/L235A/P329G) IgG1, lambda; Alexa Fluor 647-labeled in single-step flow cytometry; Cluster C-1
B2: HW-1 chimeric rabbit-human IgG1 LA/LA/PG (antibody, V domains shown)
VH: QSLEESGGGLFKPTDTLTLTCTASGFSLGSSYAISWVRQAPGKELEWIGTIDSGRAYYARWAKSRSTITRNTNENTVTLKMTSLTAADTATYFCARDLIPTYSQDIWGPGTLVTISS
VL: B1 VL with F48Y, D68N, S95N, N96S, G111S
notes: Fc-silenced (L234A/L235A/P329G) IgG1, lambda; Alexa Fluor 647-labeled in single-step flow cytometry; Prototype of cluster C-1
B3: HW-113 chimeric rabbit-human IgG1 LA/LA/PG (antibody, V domains shown)
VH: QKQLVESGGGLVQPGGSLTLTCTVSGFSLNKYYMGWFRQAPGKGLEWIGVISRSGDTYYSSWAKGRFTISKASTTVDLRITSPTTEDTATYFCARDASSPGFHGDRLDLWGQGTLVTVSS
VL: B1 VL with R30S, F48Y, D68N, S93I, Q98L, Y99W
notes: Fc-silenced (L234A/L235A/P329G) IgG1, lambda; Alexa Fluor 647-labeled in single-step flow cytometry
B4: HW-97 chimeric rabbit-human IgG1 LA/LA/PG (antibody, V domains shown)
VH: QKQLVESGGRLVTPGTPLTLTCTVTGIDLSSHGMSWVRQAPGKGLEWIGVIYPSGSTWYASWARGRFTISKTSTTVDLKMTSLTTEDTATHFCARGDVGGADNNIWGPGTLVTVSS
VL: B1 VL with N13D, D25E, R30S, F48Y, D68N, N96S
notes: Fc-silenced (L234A/L235A/P329G) IgG1, lambda; Alexa Fluor 647-labeled in single-step flow cytometry; Prototype of cluster C-97
B5: HW-25 chimeric rabbit-human IgG1 LA/LA/PG (antibody, V domains shown)
VH: QSLEESGGRLVTPGTPLTLTCTVSGFSLSSYAMGWVRQAPGKGLEWIGIIDSRGSTYYATWAKGRFTISKTSTTVDLKITSPTTEDTATYFCAREDSYYYDSFNLWGPGTLVTVSS
VL: B1 VL with F48Y, D68N, N96S, Y99C
notes: as for B1
B6: HW-70 chimeric rabbit-human IgG1 LA/LA/PG (antibody, V domains shown)
VH: QSLEESGGRLVTPGTPLTLTCTVSGFSLSSNAMSWVRQAPGKGLEWIGTIDGYGYTYYASWAKGRFTVSKTSTTVDLKITSPTTEDTATYFCAREIYLGSNFWGPGTLVTISS
VL: B1 VL with F48Y, D68N, S90A, N96S, Y99F
notes: as for B1
B7: HW-17 chimeric rabbit-human IgG1 LA/LA/PG (antibody, V domains shown)
VH: QSLGESRGRLVTPDETLTLTCTVSGIDLSSNAMSWVRQAPGEGLEWIGTINTGGRAYYASWAKGRFTISRTSTTVDLKMTSLTTEDTATYFCARERYSDGRAYDIWGPGTLVTISS
VL: B1 VL with F48Y, R49T, T51S, S52N, V57I, D68N, S90D, N96I
notes: as for B1
B8: HW-28 chimeric rabbit-human IgG1 LA/LA/PG (antibody, V domains shown)
VH: QKQLVESGGRLVTPGTPLTLTCTASGFSLSSNAMSWVRQAPGEGLQWIGTISSGGSTYYASWAKGRFTISKTSTTVTLKMTSLTTEDTATYFCARGADLHRLWGPGTLVTVSS
VL: B1 VL with A24G, D25K, T26P, R30S, Y31F, L46V, F48Y, D68N, N96S
notes: Fc-silenced (L234A/L235A/P329G) IgG1, lambda; Alexa Fluor 647-labeled in single-step flow cytometry; Cluster C-45
B9: HW-45 chimeric rabbit-human IgG1 LA/LA/PG (antibody, V domains shown)
VH: QKQLVESGGRLVTPGTPLTLTCTVSGFSLSSYAMGWFRQAPGKGLEWIGIINSYGSTYYASWAKGRFTISKTSTTVDLKITSPTTEDTATYFCGRRIGSARFDPWGPGTLVTVSS
VL: B1 VL with R30S, F48Y, S52R, D68N, N96S, Q98R, Y99L
notes: Fc-silenced (L234A/L235A/P329G) IgG1, lambda; Alexa Fluor 647-labeled in single-step flow cytometry; Prototype of cluster C-45
B10: HW-56 chimeric rabbit-human IgG1 LA/LA/PG (antibody, V domains shown)
VH: QSVKESEGGLFKPTDTLTLTCTASGFTVSTNAVTWVRQAPGNGLEYIGTIGRSGSAYFASWAKRRSTLTRDINLNTVTLKMTSLTAADTATYFCVRGSPGYRTAISIWGPGTLVTISS
VL: AVMTQTPSSTSAAVEGTVTINCQASQSISNRLSWFQQKPGQPPKLLIYQASTLASGVPSRFKGSGSGTEFTLTISGVQREDAATYYCLGSYSSSDASFGGGTKLEIKR
notes: Fc-silenced (L234A/L235A/P329G) IgG1, kappa; Alexa Fluor 647-labeled in single-step flow cytometry; Cluster C-45
B11: HW-81 chimeric rabbit-human IgG1 LA/LA/PG (antibody, V domains shown)
VH: QKQLVESGGGLVTPGGTLTLTCTVSGFSLSSNGVSWVRQAPGKGLEYIGLIRSIGSTYYATWAKGRFTISKTSTTVDLKITSPTTEDTATYFCARGGYRNGFKLWGPGTLVTVSS
VL: QPVLTQSPSVSAALGASAKLTCTLSSAHKTYYIEWYQQQHPGKAPRYLMQLQSDGSYTKGTGVPDRFSGSSSGADRYLIISSVQAEDEADYICGVIDSAVYVFGGGTQLTVTG
notes: as for B8
B12: HW-16 chimeric rabbit-human IgG1 LA/LA/PG (antibody, V domains shown)
VH: QSLEESGGRLVTPGTPLTLTCTASGFSLSSYAMSWVRQAPGKGLEWIGTMPTGGGTYYASWAKGRFTISKTSTTVDLQITSPTTEDTATYFCAKHWNIWGPGTLVTISS
VL: DIVLTQTPSSTSTAVGDTVTINCRASQSIGRNLAWFQQKPGQPPKLLIYRASNLASGVPSRFKGSGSRTQFTLTISGVQREDAATYYCLGSYSSSDTAFGGGTELEILR
notes: as for B10

Residue numbers refer to the chain shown, from its start. In names and notes the source's numbering stands.

T5 sequence (P05362 28-480): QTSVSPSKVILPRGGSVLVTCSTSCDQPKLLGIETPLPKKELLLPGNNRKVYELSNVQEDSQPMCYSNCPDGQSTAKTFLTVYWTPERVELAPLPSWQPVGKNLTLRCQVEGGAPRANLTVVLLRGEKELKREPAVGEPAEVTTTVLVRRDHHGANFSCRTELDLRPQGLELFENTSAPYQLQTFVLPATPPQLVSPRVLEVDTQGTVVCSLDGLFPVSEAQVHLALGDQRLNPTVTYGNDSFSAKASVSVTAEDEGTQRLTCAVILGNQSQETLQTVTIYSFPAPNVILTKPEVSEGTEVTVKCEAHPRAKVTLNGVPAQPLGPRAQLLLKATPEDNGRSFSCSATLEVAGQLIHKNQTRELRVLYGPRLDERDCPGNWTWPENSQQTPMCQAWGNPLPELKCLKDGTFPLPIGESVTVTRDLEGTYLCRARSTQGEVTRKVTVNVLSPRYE

The first assay deals with T4, PTP4A3.
T4 construct: also called His-PTP4A3 (R&D Systems)
T4 sequence (chain, as listed by the source limits assumed): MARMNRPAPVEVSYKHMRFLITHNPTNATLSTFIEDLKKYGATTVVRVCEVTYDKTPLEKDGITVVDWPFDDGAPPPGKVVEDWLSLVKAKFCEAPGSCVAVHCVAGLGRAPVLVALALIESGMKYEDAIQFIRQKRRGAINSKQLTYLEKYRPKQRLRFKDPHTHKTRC
The assay can be described thus: ELISA on coated protein. Here is the method: (§1) Recombinant purified ECDs (50-150 ng) of each putative target protein were coated, incubated with 150 ng of the indicated primary antibody, and binding was detected using a peroxidase-conjugated anti-human Fab secondary antibody. Heatmap represents averages of technical triplicates. (8B) Target validation via siRNA knockdown. H929 cells were transfected with siRNA pools targeting the putative antibody targets ICAM1, CADM1, and PTPRG. Cells were then subjected to cognate IgG binding analysis via flow cytometry. (NT, non-targeting siRNA).
(§2) ELISA ELISA was conducted as described previously. Briefly, 50-150 ng of antigen was coated overnight in half-area 96-well plates at 4° C., blocked with 3% BSA at 37° C. for 1 h, and 150 ng of chimeric rabbit/human IgG1 was added, incubating for 2 h at 37° C. […] After incubating at 37° C. for 15 min-1 h (depending on intensity of controls), data were acquired using a SpectraMax M5 plate reader (Molecular Devices).
A general note: An ELISA detects its analyte on a solid surface through an enzyme-linked reagent.
For the molecule B1, the binding result is listed as “no binding (tested: 150 ng IgG1 per well)”.
For B2, the binding result was “no binding (tested: 150 ng IgG1 per well)”.
Still for that read-out and setting: the same measure for B3: “no binding (tested: 150 ng IgG1 per well)”.
In the case of B4, the binding result is on record as “no binding (tested: 150 ng IgG1 per well)”.
The same measure, in the same setting: the same measure for B5: “no binding (tested: 150 ng IgG1 per well)”.
For the molecule B6, the binding result was “no binding (tested: 150 ng IgG1 per well)”.
B7: the binding result is “no binding (tested: 150 ng IgG1 per well)”.

The next assay addresses T5, ICAM1-Fc (R&D Systems) (human, UniProt P05362 28-480).
T5 construct: Bought; also called ICAM-1/CD54; not shown: Fc of the bought fusion protein
Description: ELISA on coated protein. On the procedure:
as §1, §2
Turning to B2, the binding result was “no binding (tested: 150 ng IgG1 per well)”.
Consider B4, for which the binding result was “no binding (tested: 150 ng IgG1 per well)”.
B7: the binding result is reported as “no binding (tested: 150 ng IgG1 per well)”.

The target of the next assay is T1, ANXA1. The assay can be described thus: ELISA on coated protein. Here is the method:
as §1, §2
With B1, the binding result is on record as “no binding (tested: 150 ng IgG1 per well)”.
On the same count and under the same terms, the same measure for B2: “no binding (tested: 150 ng IgG1 per well)”; for B3: “no binding (tested: 150 ng IgG1 per well)”; for B4: “no binding (tested: 150 ng IgG1 per well)”.
With B5, the binding result is given as “no binding (tested: 150 ng IgG1 per well)”.
Consider B6, for which the binding result is reported as “no binding (tested: 150 ng IgG1 per well)”.
As to B7, the binding result was “no binding (tested: 150 ng IgG1 per well)”.

The next assay addresses T2, IGSF11. Description: ELISA on coated protein. Here is the method:
as §1, §2
Consider B1, for which the binding result is on record as “no binding (tested: 150 ng IgG1 per well)”.
For B2, the binding result is “no binding (tested: 150 ng IgG1 per well)”.
For B3, the binding result is given as “no binding (tested: 150 ng IgG1 per well)”.
Turning to B4, the binding result is “no binding (tested: 150 ng IgG1 per well)”.
As to B5, the binding result is “no binding (tested: 150 ng IgG1 per well)”.
As for B6, the binding result is recorded as “no binding (tested: 150 ng IgG1 per well)”.
On to B7, for which the binding result was “no binding (tested: 150 ng IgG1 per well)”.

Another assay addresses T3, GARS, endogenous in H929 multiple …. The assay can be described thus: flow cytometry, H929 + CDH18 siRNA; None 0.19; surface target GARS putative. (In general: In flow cytometry, cells or beads pass a laser one at a time.)
With B8, the “Cells stained (%)” value came to 99.4%.
Take B9: the “Cells stained (%)” value turned out to be 99.4%.
B10: the “Cells stained (%)” value was 99.9%.
With B11, the “Cells stained (%)” value came to 99.3%.
As to B12, the “Cells stained (%)” value is 98.6%.

A further assay shares this target. Description: flow cytometry, H929 + CDH18 siRNA; None 443; surface target GARS putative.
Regarding B8, the “mAb binding (MFI)” value is 164000.
With B9, the “mAb binding (MFI)” value was 59600.
Still for that read-out and setting: next, B10: 400000; B11: 193000; B12: 174000.
